19 molecules from patent publication US20240383974A1 (BETTA PHARMACEUTICALS, published 2024) can be followed below.

Like-named read-outs stand apart in the source and are kept apart here.

Test [1] has as its target T1, human PD-L1 (human, UniProt Q9NZQ7 19-290).
T1 construct: whole, on cells; also called hPD-L1; PD-L1 antigen on MDA-MB-231 cells
Put plainly: FACS on MC38-hPD-L1 cells.

The target of test [2] is T2, GARP-TGF-β complex (293-GARP/TGFβ stably transfected cells) (UniProt Q14392 20-662; P01137 30-390).
T2 construct: whole, on cells; Complex of GARP and (latent) TGF-β on the cell surface; also called 293-GARP/TGFβ cell; 293F-GAPR/TGFβ/αvβ6 cells
Put plainly: FACS on 293-GARP/TGFβ cells.

Test [3] concerns the target T3, human transforming growth factor β1 (human, UniProt P01137 279-390).
T3 construct: Coated on the ELISA plate at 100 ng/well; also called hTGF-β1; TGF-β
As to the kind of experiment: ELISA, plate-coated hTGF-β1. (In general: An ELISA detects its analyte on a solid surface through an enzyme-linked reagent.)

For test [4], the target named is T1, human PD-L1. Put plainly: FACS on MDA-MB-231 cells (endogenous PD-L1).
For test [5], the target named is T1, human PD-L1. As to the kind of experiment: competitive FACS: blocks human-CD80-mFc binding to 293T-PD-L1 cells.
The next test deals with PD-L1-Biotin (UniProt Q9NZQ7 19-238, limits assumed, biotin label (site not stated)). Put plainly: competitive FACS: blocks PD-L1-Biotin binding to 293T-PD-1 cells.
Test [6] addresses T1, human PD-L1. Put plainly: FACS on PD-L1-expressing cells, similar method.
Test [7] has as its target T2, GARP-TGF-β complex (293-GARP/TGFβ …). As to the kind of experiment: FACS on 293-GARP/TGFβ cells. This is another data set of the same source.
The target in test [8] is T3, human transforming growth factor β1. As to the kind of experiment: ELISA, plate-coated hTGF-β1. This is another data set of the same source.
In test [9] the target is T2, GARP-TGF-β complex (293-GARP/TGFβ …). As to the kind of experiment: FACS on 293-GARP/TGFβ cells. This is another data set of the same source.

In general, EC50 refers to the midpoint of the concentration-response curve. Read a high EC50 as weaker potency. The IC50 is the concentration that gives 50% inhibition. Higher therefore signals weaker potency.

T1 sequence (Q9NZQ7 19-290): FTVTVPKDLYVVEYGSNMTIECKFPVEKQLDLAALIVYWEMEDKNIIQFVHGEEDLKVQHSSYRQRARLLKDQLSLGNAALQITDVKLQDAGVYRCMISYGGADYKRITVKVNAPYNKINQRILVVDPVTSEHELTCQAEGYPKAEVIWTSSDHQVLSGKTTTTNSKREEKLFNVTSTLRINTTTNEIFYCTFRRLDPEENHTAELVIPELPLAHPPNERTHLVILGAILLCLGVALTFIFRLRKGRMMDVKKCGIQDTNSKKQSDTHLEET
T3 sequence (P01137 279-390 limits assumed): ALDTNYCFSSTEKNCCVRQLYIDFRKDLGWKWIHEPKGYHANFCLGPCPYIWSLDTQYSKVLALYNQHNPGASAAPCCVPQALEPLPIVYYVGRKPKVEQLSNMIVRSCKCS
T2 sequence (Q14392 20-662, chain 1 of 2): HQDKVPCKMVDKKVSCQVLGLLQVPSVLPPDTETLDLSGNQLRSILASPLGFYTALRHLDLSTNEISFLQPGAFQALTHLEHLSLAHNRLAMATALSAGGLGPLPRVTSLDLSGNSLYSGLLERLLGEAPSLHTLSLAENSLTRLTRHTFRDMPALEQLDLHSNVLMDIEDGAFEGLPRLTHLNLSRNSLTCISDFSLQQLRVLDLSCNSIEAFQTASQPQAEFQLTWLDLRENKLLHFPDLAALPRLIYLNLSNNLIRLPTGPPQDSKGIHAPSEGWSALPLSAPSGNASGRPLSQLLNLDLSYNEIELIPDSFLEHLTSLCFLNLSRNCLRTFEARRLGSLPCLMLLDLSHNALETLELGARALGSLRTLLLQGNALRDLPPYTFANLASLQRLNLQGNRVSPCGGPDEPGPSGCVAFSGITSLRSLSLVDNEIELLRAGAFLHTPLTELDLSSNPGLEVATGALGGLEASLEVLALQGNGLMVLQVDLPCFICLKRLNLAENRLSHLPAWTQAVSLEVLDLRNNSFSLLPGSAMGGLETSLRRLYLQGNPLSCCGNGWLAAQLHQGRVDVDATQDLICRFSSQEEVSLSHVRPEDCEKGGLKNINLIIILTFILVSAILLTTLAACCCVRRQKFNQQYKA
T2 sequence (P01137 30-390, chain 2 of 2): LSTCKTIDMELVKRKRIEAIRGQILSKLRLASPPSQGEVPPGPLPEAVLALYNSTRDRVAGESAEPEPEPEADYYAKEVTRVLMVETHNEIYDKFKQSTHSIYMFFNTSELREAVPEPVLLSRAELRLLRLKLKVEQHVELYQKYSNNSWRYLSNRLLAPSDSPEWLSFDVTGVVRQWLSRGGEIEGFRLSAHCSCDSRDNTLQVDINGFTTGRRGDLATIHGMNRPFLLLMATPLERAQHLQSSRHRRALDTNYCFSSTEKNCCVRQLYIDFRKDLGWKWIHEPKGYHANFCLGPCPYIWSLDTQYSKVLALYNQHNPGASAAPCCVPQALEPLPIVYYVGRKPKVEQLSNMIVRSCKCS
PD-L1-Biotin, sequence (Q9NZQ7 19-238 limits assumed): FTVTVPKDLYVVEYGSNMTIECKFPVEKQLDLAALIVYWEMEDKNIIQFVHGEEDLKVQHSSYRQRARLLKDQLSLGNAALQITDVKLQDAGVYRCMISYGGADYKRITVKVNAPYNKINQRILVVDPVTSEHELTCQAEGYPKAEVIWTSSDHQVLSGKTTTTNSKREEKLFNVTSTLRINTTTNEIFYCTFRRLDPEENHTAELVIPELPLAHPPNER

B1: antibody m301-hu (antibody, V domains shown)
VH: QVQLQESGPGLVKPSGTLSLTCAVSGFSLTTYGVTWVRQPPGKGLEWIGLIWGDGTTDYHSTFISRLTISKDKSKNQVSLKLSSVTAADTAVYYCASYYFAMHYWGQGTLVTVSS
VL: DIVMTQSPDSLAVSLGERATINCKSSQSLLNSRTQKNYLAWYQQKPGQSPKLLIYWASTRESGVPDRFSGSGSGTDFTLTISSLQAEDVAVYYCKQSYNLWTFGGGTKVEIK
notes: Humanized m301
For B1, in the test with human PD-L1 [1], the binding result was “no binding (tested: initial concentration 200 nM)”. Moreover, the half-maximal effective concentration (EC50) is 4 nM in test [2] and less than 2 nM in [3].

B2: antibody m202-hu (antibody, V domains shown)
VH: QVQLVQSGAEVKKPGASVKVSCKASGYTFTSYWMHWVKQAPGQGLEWIGNINPSNGDTNYNEKFKSKATLTVDKSTSTAYMELRSLRSDDTAVYYCARATYGSYGYFDVWGQGTLVTVSS
VL: DIVLTQSPDSLAVSLGERATINCRASESVTIIGTNLIQWFQQKPGQPPKLLIYHASNLETGVPDRFSGSGSRTDFTLTISSLQAEDVAVYYCLQSRQIPRTFGGGTKVEIK
notes: Humanized m202
In the case of B2, the binding result with human PD-L1 [1] is listed as “no binding (tested: initial concentration 200 nM)”. Also, the concentration giving a half-maximal response (EC50) was 2.5 nM in test [2] and less than 2 nM in test [3].

B3: antibody A (VHH)
VHH: QVQLVESGGGLVQAGGSLRLSCAASGRSFSSSGMGWFRQAPGKDREFVATINSSGGDTYYRDSVEGRFTTSRDNAKNTMSLQMNDLKPEDTAVYYCAAKEGGGPSSIPAIYDYWGQGTQVTVSS
notes: Anti-PD-L1 alpaca nanobody
B3 returned an EC50 with human PD-L1 [4] of 0.089 nM. In addition, the IC50 with human PD-L1 [5] is 3.95 nM; with PD-L1-Biotin, 1.02 nM.

B4: antibody Ahu (VHH)
VHH: QVQLVESGGGVVQPGGSLRLSCAASGRSFSSSGMGWFRQAPGKGREFVATINSSGGDTYYRDSVEGRFTTSRDNSKNTMYLQMNSLRAEDTAVYYCAAKEGGGPSSIPAIYDYWGQGTLVTVSS
notes: Humanized anti-PD-L1 nanobody
B4 gave a concentration for a half-maximal effect (EC50) with human PD-L1 [6] of 0.051 nM. In addition, the IC50 with human PD-L1 [5] was approximately 1.8 nM; with PD-L1-Biotin, 4 nM.

B5: antibody E (VHH)
VHH: QVQLVESGGGLVQAGGSLRLSCAASGRSFSSSGMGWFRQAPGKDREFVATINSSGGDTYYADSVEGRFTTSRDNAKNTMSLQMNDLKPEDTAVYYCAAKEGGGPSSIPAIFDYWGQGTQVTVSS
notes: Anti-PD-L1 alpaca nanobody
Molecule B5 came in with an EC50 with human PD-L1 [4] of 0.053 nM. The half-inhibitory concentration (IC50) was 2.98 nM with human PD-L1 [5] and 2.54 nM with PD-L1-Biotin.

B6: antibody D1hu (VHH)
VHH: EVQLVESGGGLVQPGGSLRLSCTASGRDFLTYGMGWFRQAPGKELEFVASINWSGSMTYYADSVKGRFTISRDNAKNTVYLQMNSLRAEDTAVYICAARRGAVTYASSNEYEHWGQGTQVTVSS
notes: Humanized anti-PD-L1 nanobody
In the test with human PD-L1 [6], B6 came in with an EC50 of 0.18 nM. Moreover, the IC50 with human PD-L1 [5] was approximately 1.5 nM; in the test with PD-L1-Biotin, 2.6 nM.

B7: antibody D2hu (VHH)
VHH: EVQLVESGGGLVQPGGSLRLSCAASGRDFLTYGMGWFRQAPGKGLEFVASINWSGSMTYYADSVKGRFTISRDNAKNSVYLQMNSLRAEDTAVYICAARRGAVTYASSNEYEHWGQGTQVTVSS
notes: Humanized anti-PD-L1 nanobody
Molecule B7 registered an EC50 in the test with human PD-L1 [6] of 0.29 nM. The IC50 in the test with PD-L1-Biotin turned out to be 12 nM.

B8: antibody Chu (VHH)
VHH: EVQLVESGGGLVQPGGSLRLSCAASGRDFLTYGMGWFRQAPGKGREFVASINWSGSMTYYADSVKGRFTISRDNAKNTVYLQMNSLKAEDTAVYICAARRGAVTYASSNEYEHWGQGTLVTVSS
notes: Humanized anti-PD-L1 nanobody
As for B8, the half-inhibitory concentration (IC50) was approximately 3.2 nM in the test with human PD-L1 [5] and 1 nM with PD-L1-Biotin.

B9: antibody C (VHH)
VHH: EVQLVESGGGSVQTGGSLRLSCVASGRDFLTYGMGWFRQAPGKEREFVASINWSGSMTYYADSVKGRFTISRDNAKNTVYLQMNSLKPGDTAVYICAARRGAVTYASSNEYEHWGQGTQVTVSS
notes: Anti-PD-L1 alpaca nanobody
B9 came in with a 50% effective concentration (EC50) with human PD-L1 [4] of 0.042 nM. Besides, the IC50 with human PD-L1 [5] is 4.15 nM; with PD-L1-Biotin, 1.68 nM.

B10: antibody D (VHH)
VHH: EVQLVESGGGLVQAGDSLRLSCTASGRDFLTYGMGWFRQAPGKEREFVASINWSGSMTYYADSVKGRFTISRDNAKNTVYLQMNSLKPGDTAVYICAARRGAVTYASSNEYEHWGQGTQVTVSS
notes: Anti-PD-L1 alpaca nanobody
Regarding B10, the 50% effective concentration (EC50) with human PD-L1 [4] was found to be 0.039 nM. Further, the half-inhibitory concentration (IC50) with human PD-L1 [5] came out at 4.76 nM; in the test with PD-L1-Biotin, 2.1 nM.

B11: b305-H-Bhu-D2hu (bispecific antibody)
heavy: not shown
light: DIQMTQSPSSLSASVGDRVTITCRASQEISGYLSWLQQKPGGAPKRLIYAASTLDSGVPSRFSGSRSGTDYTLTISSLQPEDFATYYCLQYASYPTCTFGGGTKVEIKRTVAAPSVFIFPPSDEQLKSGTASVVCLLNNFYPREAKVQWKVDNALQSGNSQESVTEQDSKDSTYSLSSTLTLSKADYEKHKVYACEVTHQGLSSPVTKSFNRGEC
notes: Tandem architecture and constant regions as noted for b301-H-Bhu-D2hu
In turn, B11 came in with an EC50 in test [7] of 4.4 nM.

B12: antibody m202 (antibody, V domains shown)
VH: QVQLQQPGTELVKPGASVKLSCKASGYTFTSYWMHWVKQRPGQGLEWIGNINPSNGDTNYNEKFKSKATLTVDKSSSTAYMQLSSLTSDDSAVYYCARATYGSYGYFDVWGTGTAVTVSS
VL: DIVLTQSPASLAMSLGKRATISCRASESVTIIGTNLIQWFQQKPGQPPKLLIYHASNLETGVPARFSGSGSRTDFTLTIDPVEEDDVAIYYCLQSRQIPRTFGGGTKLEIK
Regarding B12, the EC50 in [8] was less than 1 nM; in [9] it was 2.7 nM.

B13: b202-L-Bhu (bispecific antibody)
heavy: not shown
light: DIVLTQSPDSLAVSLGERATINCRASESVTIIGTNLIQWFQQKPGQPPKLLIYHASNLETGVPDRFSGSGSRTDFTLTISSLQAEDVAVYYCLQSRQIPRTFGGGTKVEIKRTVAAPSVFIFPPSDEQLKSGTASVVCLLNNFYPREAKVQWKVDNALQSGNSQESVTEQDSKDSTYSLSSTLTLSKADYEKHKVYACEVTHQGLSSPVTKSFNRGECGGGGSGGGGSGGGGSGGGGSQVQLVESGGGVVQPGGSLRLSCAASGFTFSSYAMRWVRQAPGKGLEWVAGINTGSEIVVYANSVRGRFTISRDNSRDTLYLQMNSLRAEDTAVYYCATGLVSAEHDGIWGQGTQVTVSS
B13 returned an EC50 in [7] of 1.6 nM.

B14: b202-H-Bhu-D2hu (bispecific antibody)
heavy: not shown
light: DIVLTQSPDSLAVSLGERATINCRASESVTIIGTNLIQWFQQKPGQPPKLLIYHASNLETGVPDRFSGSGSRTDFTLTISSLQAEDVAVYYCLQSRQIPRTFGGGTKVEIKRTVAAPSVFIFPPSDEQLKSGTASVVCLLNNFYPREAKVQWKVDNALQSGNSQESVTEQDSKDSTYSLSSTLTLSKADYEKHKVYACEVTHQGLSSPVTKSFNRGEC
notes: as for B11
Consider B14, for which, in test [7], the 50% effective concentration (EC50) turned out to be 1.5 nM.

B15: antibody m109 (antibody, V domains shown)
VH: EVKLVESGGGLVQPGGSLKLSCATSGFTFSDYYMYWVRQTPEKRLEWVAYISNGGGRTYYPDTVKGRFTISRDNAKNTLYLQMSRLKSEDRAIYYCARQKTNYGNYEEDYYAMGYWGQGTSVTVSS
VL: DIVLTQSPASLAVSLGQRATISCRASKSVSTSGYSYIHWYQQKPGQPPKLLIYLASNLESGVPARFSGSGSGTDFTLNIHPVEEEDAATYYCQHSRELPLTFGAGTKLDLK
In the case of B15, the EC50 in test [8] was less than 1 nM; in [9] it was more than 5 nM.

B16: antibody m109-hu (antibody, V domains shown)
VH: EVQLVESGGGLVQPGGSLRLSCATSGFTFSDYYMYWVRQTPEKRLEWVAYISNGGGRTYYPDTVKGRFTISRDNAKNSLYLQMSRLRAEDTAVYYCARQKTNYGNYEEDYYAMGYWGQGTSVTVSS
VL: DIVLTQSPASLAVSLGQRATITCRASKSVSTSGYSYIHWYQQKPGQPPKLLIYLASNLESGVPARFSGSGSGTDFTLTINPVEEEDAATYYCQHSRELPLTFGAGTKLEIK
notes: Humanized m109
B16: the EC50 in test [2] is more than 5 nM; in test [3], 0.73 nM.

B17: antibody B (VHH)
VHH: QVQLVESGGGLVQPGGSLSLSCVASGFTFSSYAMRWVRQAPGKEPEWVAGINTGSEIVVYANSVRGRFAISRDNARDTLFLQMNSLKPEDTAVYYCATGLVSAEHDGIWGQGTQVTVSS
notes: Anti-PD-L1 alpaca nanobody
As for B17, in the test with human PD-L1 [4], the midpoint of the response, the EC50, lay at 0.031 nM. The half-inhibitory concentration (IC50) in the test with human PD-L1 [5] came to 3.35 nM; with PD-L1-Biotin, 2.08 nM.

B18: antibody Bhu (VHH)
VHH: QVQLVESGGGVVQPGGSLRLSCAASGFTFSSYAMRWVRQAPGKGLEWVAGINTGSEIVVYANSVRGRFTISRDNSRDTLYLQMNSLRAEDTAVYYCATGLVSAEHDGIWGQGTQVTVSS
notes: Humanized anti-PD-L1 nanobody
In the test with human PD-L1 [6], B18 yielded a 50% effective concentration (EC50) of 0.18 nM. The 50% inhibitory concentration (IC50) with human PD-L1 [5] is approximately 1.7 nM; with PD-L1-Biotin it was 3.4 nM.

B19: antibody m107-hu (antibody, V domains shown)
VH: QVQLVQSGAEVKRPGASVKVSCKASGYTFSAYTIHWVKQRPGQGLEWIGYINPSNDFAKYIQKFKDKVTITADKSTSTAYMELNSLRSEDTAVYYCARVDYYGGSYRWYLDVWGQGTTVTVSS
VL: DIVLTQSPATLSLSPGERATLSCRASQSISNNLHWYQQKPGEAPRLLIKYTSQSISGIPARFSGSGSGTDFTLTISSLEPEDFAVYFCQQSNSWPIFTFGQGTKLEIK
notes: Humanized m107
As to B19, the EC50 in [2] and in test [3] was 7.5 nM throughout.
